Results on one compound are retold here after US20250121076A1, “POLYPEPTIDE DRUG CONJUGATE HAVING NOVEL STRUCTURE AND APPLICATION THEREOF” (MEDSHINE DISCOVERY INC., priority 2021, published 2025).

The structures appear in SMILES notation. Counter-ions that a name gives are not always drawn. Starred links: 1 amine or outer side, 2 acyl side, 3 side chain; linkers in the order of their positions; H or OH if unused. Positions of bridges follow the written chain, without caps; N, C: chain ends. Non-standard residues stand in square brackets, D forms with d. Residues, ends and D or L forms follow the SMILES beside them. Chains are numbered I, II in the order given. *: point of attachment. TATA = O=C(CC[*:1])N1CN(C(=O)CC[*:2])CN(C(=O)CC[*:3])C1; Dolaproine = CO[C@@H]([C@@H]1CCCN1)[C@@H](C)C(=O)O; Dil = CC[C@H](C)[C@H](NC)[C@@H](CC(=O)O)OC; X2 = O=C(CCCC(=O)[*:2])NCCC(=O)[*:1]; PABC = O=C(OCc1ccc(N[*:1])cc1)[*:2]; X1 = C[C@@H](N*)[C@@H](O)c1ccccc1; Hyp = O=C(O)[C@@H]1C[C@@H](O)CN1; hArg = N=C(N)NCCCC[C@H](N)C(=O)O; Cit = NC(=O)NCCC[C@H](N)C(=O)O; Pen = CC(C)(S)[C@H](N)C(=O)O; NMeV = CN[C@H](C(=O)O)C(C)C; Sar = CNCC(=O)O

Data set [1] is described as follows: Metabolic stability in hepatocytes. The class given is in vitro ADME, Cynomolgus macaques. The settings on record: Cynomolgus macaque hepatocytes, 1 μM, 0.5×10^6 cells/mL. The procedure: To investigate the metabolic stability of the compounds of the present invention in hepatocytes from Cynomolgus macaques and humans.
Incubations were performed in 96-well plates using an external extraction method. Several 96-well sample precipitation plates, designated T0, T15, T30, T60, T90, T0-MC, T90-MC, and blank matrix, were prepared, respectively. The recovery culture medium and incubation culture medium were removed in advance and placed in a 37° C. water bath for preheating. Frozen hepatocytes from Cynomolgus macaques and humans were removed from a liquid nitrogen tank, recovered, and diluted to 0.51×10^6 cells/mL with the incubation culture medium. […]
At the end of the incubation at the corresponding time point, the incubation plates were removed, from which 25 μL of a compound mixture with the cells was removed and added to sample plates containing 125 μL of stop buffer. […] All samples were mixed uniformly and then analyzed by the LC-MS/MS method.
The concentration of the compound of the present invention in the sample was semi-quantitatively determined by the liquid chromatography-tandem mass spectrometry (LC-MS/MS) method without a standard curve and quality control sample. […]

Data set [2] in a line: Pharmacokinetic analysis in Cynomolgus macaque plasma. The data set is classed as in vivo, Cynomolgus macaques. Particulars: cynomolgus monkey, in vivo, Cynomolgus macaques, single IV 1 mg/kg, plasma. The procedure:
To test the pharmacokinetics of the compounds of the present invention in Cynomolgus macaques.
The pharmacokinetic characteristics of the compound after intravenous injection and oral administration were tested in Cynomolgus macaques according to a standard protocol. The compound of the present invention was formulated into a clear solution using 50 mM acetate buffer (pH=5) in 10% sucrose as a vehicle. Two Cynomolgus macaques were given a single intravenous injection of 1 mg/kg of the compound to be tested. Whole blood was collected at time points of 0.083, 0.25, 0.5, 1, 2, 4, 8, and 24 hours after administration to get plasma. The concentration of the compound to be tested and the concentration of its potential metabolite MMAE were analyzed by the LC-MS/MS method, and the pharmacokinetic parameters were calculated by Phoenix WinNonlin software.

Another data set has as its system NCI-H1975. Nature of the data set: In vitro anti-proliferative activity, CellTiter-Glo. The class given is cell-based, Human. Particulars: NCI-H1975, 72 h. The procedure:
(§1) To investigate the effect of the compounds of the present invention on inhibiting cell proliferation by detecting the effect of the compounds on cell activity in vitro in tumor cell lines NCI-H1975 and SK-OV-3.
(§2) The tumor cell lines were cultured in a 37° C., no CO2 incubator and a 37° C., 5% CO2 incubator according to the culture conditions shown in Table 15, respectively. The cells were periodically passaged, and cells in a logarithmic growth phase were taken for plating.
(§3) Cells in a logarithmic growth phase were harvested and centrifuged at 1000 rpm for 3 min at room temperature. The supernatant was discarded, and the cells were resuspended in 5 mL of a culture medium. Then, 20 ul of the cell suspension was pipetted and mixed with trypan blue at 1:1 for staining for 3 min to detect cell viability and to count viable cells. The cell density was adjusted to 4000 NCI-H1975/well or 5000 SK-OV-3/well. Then, 90 μL of the cell suspension was added to each culture plate well, and a cell-free culture medium was added to blank control wells. […]
(§4) The detection was performed according to the instructions of the Promega CellTiter-Glo Luminescent Cell Viability Assay kit (Promega-G7573). The luminescence signal was detected on the En Vision® Multi-mode Plate Reader (EnVision 2104-10). […]
A general note: Cellular ATP, detected with luciferase, serves as a proxy for viable cell number.

Another data set deals with SK-OV-3. The data set is described as above. The class given is cell-based, Human. Particulars: SK-OV-3, 72 h. The procedure:
as §1, §2, §3, §4

A further data set can be described thus: Stability in plasma. The data set is classed as in vitro ADME, SD rats. The settings on record: SD rat plasma, 2 μM, 37° C., up to 240 min. The procedure: To test the stability of the compounds of the present invention in plasma from rats, Cynomolgus macaques, and humans.
The corresponding incubation plates, including T0, T10, T30, T60, T120, and T240 incubation plates, were added with a 2 μL working solution of the compound to be tested (100 μM). Three parallel wells were prepared for each sample. Then, 98 μL of blank plasma from SD rats, Cynomolgus macaques, and humans was added to the corresponding incubation plates to which the working solution had been added. All samples were incubated in a 37° C. water bath. […] At the end of each incubation time point, the corresponding incubation plate was removed, added with stop buffer, precipitated, and centrifuged for 20 minutes. Then, 150 μL of the supernatant was analyzed by the LC-MS/MS method. The concentration of the compound to be tested in the sample was semi-quantitatively determined by the liquid chromatography-tandem mass spectrometry (LC-MS/MS) method.

The term half-life denotes the time needed for the level to fall by half in the phase considered. Low values mean fast loss, high ones slow loss. By AUC(0-t) is commonly meant the area under the concentration-time curve up to a stated or last time point. For orientation: clearance means the rate of elimination divided by the concentration. Lower therefore signals inefficient removal. Usually IC50 stands for the midpoint of a concentration-inhibition curve. A lower IC50 goes with inhibition by little substance.

On to `CC[C@H](C)[C@@H]([C@@H](CC(=O)N1CCC[C@H]1[C@H](OC)[C@@H](C)C(=O)N[C@H](C)[C@@H](O)c1ccccc1)OC)N(C)C(=O)[C@@H](NC(=O)[C@H](C(C)C)N(C)C(=O)OCc1ccc(NC(=O)[C@H](CCCNC(N)=O)NC(=O)[C@@H](NC(=O)CCCC(=O)NCCC(=O)N(C)CC(=O)N(C)CC(=O)N(C)CC(=O)N(C)CC(=O)N(C)CC(=O)N(C)CC(=O)N(C)CC(=O)N(C)CC(=O)N(C)CC(=O)N(C)CC(=O)N[C@H]2CCCCNC(=O)C[C@@H](C(=O)N[C@H]3CSCCC(=O)N4CN5CN(C4)C(=O)CCSC(C)(C)[C@@H](C(N)=O)NC(=O)[C@H](CCCCNC(=N)N)NC(=O)[C@H](Cc4c[nH]c6ccccc46)NC(=O)[C@@H](CC(=O)O)NC(=O)[C@@H]4CCCN4C(=O)[C@H](Cc4c[nH]cn4)NC(=O)[C@H](CC(C)C)NC(=O)[C@H](CSCCC5=O)NC(=O)[C@H](CC(C)C)NC(=O)[C@@H]4CCCN4C(=O)[C@H](CC(N)=O)NC(=O)[C@H](C(C)C)NC(=O)[C@H](CC(C)C)NC(=O)[C@@H]4C[C@@H](O)CN4C3=O)NC(=O)[C@H](CCCCNC(=N)N)NC2=O)C(C)C)cc1)C(C)C` [Acetate salt of PDC_8] (I: [Sar][Sar][Sar][Sar][Sar][Sar][Sar][Sar][Sar][Sar]K[hArg]DC[Hyp]LVNPLCLHP[dD]W[hArg][Pen]-NH2 / II: V[Cit][PABC][NMeV]V[Dil][Dolaproine]-X1; lactam I:11-I:13; linker I:14-I:21-I:28 via TATA; linker I:N-II:N via X2), for which, in data set [1], the half-life is greater than 3.61 h. In addition, the CLint scaled in data set [1] (read-out: CLint (liver)) is less than 23 mL/min/kg. In addition, in data set [2], the AUC(0-t) came out at 0.651 µM·h, the C0 is 2470 nM, the clearance was found to be 5.72 mL/min/kg and the half-life was 0.31 h. In data set [2] (read-out: Vdss), the Vd worked out at 0.12 L/kg. The same compound gave a concentration for half-maximal inhibition (IC50) in the data set with NCI-H1975 of 79 nM. Further, the 50% inhibitory concentration (IC50) with SK-OV-3 is 586 nM. Moreover, in “Stability in plasma”, the half-life was greater than 9.63 h.
